PMC9708914 (iScience, 2022)

Experiments:
crystal structure = target: the molecule itself; assay: crystal structure
cross-linking = target: the molecule itself; assay: cross-linking

B1: Thermus thermophilus MgtE transmembrane (TM) domain (TtMgtE 268-450) (domain or fragment, UniProt Q5SMG8 268-450, looked up)
chain: VPDLVYSEAGPVALWLARVRWLVILILTGMVTSSILQGFESVLEAVTALAFYVPVLLGTGGNTGNQSATLIIRALATRDLDLRDWRRVFLKEMGVGLLLGLTLSFLLVGKVYWDGHPLLLPVVGVSLVLIVFFANLVGAMLPFLLRRLGVDPALVSNPLVATLSDVTGLLIYLSVARLLLEAV
Crystal structure
  binding result: binds

B2: MgtE ΔN T336C/L421C (TtMgtE 130-450, T336C/L421C) (domain or fragment, Thermus thermophilus, UniProt Q5SMG8 130-450, looked up)
chain: EEDEAGGLMTPEYVAVREGMTVEEVLRFLRRAAPDAETIYYIYVVDEKGRLKGVLSLRDLIVADPRTRVAEIMNPKVVYVRTDTDQEEVARLMADYDFTVLPVVDEEGRLVGIVTVDDVLDVLEAEATEDIHKLGAVDVPDLVYSEAGPVALWLARVRWLVILILTGMVTSSILQGFESVLEAVTALAFYVPVLLGTGGNTGNQSACLIIRALATRDLDLRDWRRVFLKEMGVGLLLGLTLSFLLVGKVYWDGHPLLLPVVGVSLVLIVFFANLVGAMLPFLLRRLGVDPACVSNPLVATLSDVTGLLIYLSVARLLLEAV
cross-linking
  stoichiometry N: 2
